From patent publication US8986682B2, “Method to increase the absorption of unsaturated fatty acids by human infants” (Swedish Orphan Biovitrum AB (publ), priority 2010, dated 2015)
Values joined by “and” are separate entries in the source; they are usually repeats but may differ in a detail not shown here. Identical values can stand only once. Marks after values point to notes of the source that are not given here.

Test system: preterm infants born before week 32 of gestational age
Assay: Coefficient of fat absorption (CFA), fat balance of food and stool by gas chromatography, studies BVT.BSSL-020/-021
Format: in vivo, human
Set-up: Coefficient of Absorption of AA (C20:4 n-6), Minimum: concentration or dose not given beside the values
Details: for CFA (overall), LS Mean Difference (rhBSSL − Placebo) / CFA (overall), Maximum / CFA (overall), Mean (SD) / CFA (overall), Median / CFA (overall), Minimum: last 72 h of 7-day treatment
Protocol: Patients were randomized to infant formula/pasteurized breast milk supplemented with rhBSSL at a final concentration of 0.15 g/L, or to infant formula/pasteurized breast milk “supplemented” with sterile water for injection (as placebo) for the first 7 days. After a washout period of 2 days, the patient was “crossed over” to the other treatment regimen during a second 7-day treatment period. Collection of feces samples for CFA assessment were performed during the last 3 days (72 hours) of each treatment period.
The collection of feces for the determination of CFA was performed over a period corresponding to the fat, i.e., formula or milk, ingestion during 72 hours toward the end of each treatment period. Diapers supplied to each site were used for feces collection. During the two treatment periods, a carmine red tracer dye was given as a marker together with a meal (approximately at noon) on Day 4 and Day 13, respectively, and collection of stool commenced with the appearance of the first carmine red marker in the stool. The stool containing the first marker was collected and the date and time of the first stool collected was recorded on the CRF. At 72 hours following administration of the first red marker, the second carmine marker was given, and stool collection continued until the second carmine marker appeared. The stool containing the second marker was not collected, but the date and time of the appearance of the second marker was recorded on the CRF. Diapers were weighed before placement and after removal and the difference in weight was recorded on the CRF. The times of each collection and the elapsed duration of the entire collection period was also recorded on the CRF. The use of ointments for the treatment of skin irritation was prohibited during the stool collection period. Diapers were to be changed frequently during the collection period to keep the skin dry. Patients with skin rash severity leading to discontinuation of the stool collection were to be withdrawn from the study. Specific collection methods were provided in a separate laboratory manual. If applicable, vomit from the stool collection periods of both treatment periods was weighed. A small cloth/linen was weighed and placed under the head of each infant. When the cloth/linen was soiled with vomit, it was removed and re-weighed. If an additional cloth was used to remove vomit from the infant, that cloth was also weighed before and after use. The weight of vomit (total weight minus the weight of the cloth/linen) was recorded on the CRF. All other feed losses, e.g., formula or milk left in bottle, were measured and the amount accounted for in the calculation of the volume of formula consumed at each feeding.
Feces samples, the formula (study 020) and the milk aliquots (study 021) were analyzed by a central laboratory. Individual fatty acids, including the long-chain polyunsaturated fatty acids DHA and AA, were quantified in feces and feed by a gas chromatographic method following extraction by the Folch method. In both studies, the Omegawax 250 column (Supelco) was used for separation of the fatty acids. However, due to co-elution of DHA with nervonic acid (C24:1), which was only present in the breast milk, samples from patients of the per-protocol analysis set from study 021 were also analyzed using a SP-2380 column (Supelco) in order to quantify DHA for those samples from study 021. […] Total lipids were calculated as the sum of the individual fatty acids. (See Section 7.5.1). The same analytical principle was used to determine lipids in each of the batches of formula and aliquots of breast milk used in the study. […]

[1] = BVT.BSSL-021 (pasteurized breast milk), PP
[2] = BVT.BSSL-021 (pasteurized breast milk), PP, 72-hour collection period
[3] = BVT.BSSL-021 Pasteurized milk, PP
[4] = combined analysis, PP, post hoc
[5] = combined data, PP, 72-hour collection, rhBSSL (N = 46)

B1: rhBSSL: recombinant human bile-salt-stimulated lipase, SEQ ID. NO. 1, expressed from recombinant CHO cells; used in both clinical trials (protein, listed as Homo sapiens)
chain: AKLGAVYTEGGFVEGVNKKLGLLGDSVDIFKGIPFAAPTKALENPQPHPGWQGTLKAKNFKKRCLQATITQDSTYGDEDCLYLNIWVPQGRKQVSRDLPVMIWIYGGAFLMGSGHGANFLNNYLYDGEEIATRGNVIVVTFNYRVGPLGFLSTGDANLPGNYGLRDQHMAIAWVKRNIAAFGGDPNNITLFGESAGGASVSLQTLSPYNKGLIRRAISQSGVALSPWVIQKNPLFWAKKVAEKVGCPVGDAARMAQCLKVTDPRALTLAYKVPLAGLEYPMLHYVGFVPVIDGDFIPADPINLYANAADIDYIAGTNNMDGHIFASIDMPAINKGNKKVTEEDFYKLVSEFTITKGLRGAKTTFDVYTESWAQDPSQENKKKTVVDFETDVLFLVPTEIALAQHRANAKSAKTYAYLFSHPSRMPVYPKWVGADHADDIQYVFGKPFATPTGYRPQDRTVSKAMIAYWTNFAKTGDPNMGDSAVPTHWEPYTTENSGYLEITKKMGSSSMKRSLRTNFLRYWTLTYLALPTVTDQEATPVPPTGDSEATPVPPTGDSETAPVPPTGDSGAPPVPPTGDSGAPPVPPTGDSGAPPVPPTGDSGAPPVPPTGDSGAPPVPPTGDSGAPPVPPTGDSGAPPVPPTGDAGPPPVPPTGDSGAPPVPPTGDSGAPPVTPTGDSETAPVPPTGDSGAPPVPPTGDSEAAPVPPTDDSKEAQMPAVIRF
- CFA for C20:3 n-6 (sum of C20:3 n-6 and C20:3 n-3), Difference (rhBSSL − Placebo) [1]: 8.91* %
- CFA for C20:4 n-6 (AA) [1]: 72.10%
- CFA for C20:4 n-6 (AA), Difference (rhBSSL − Placebo) [1]: 10.82* %
- CFA for C22:6 n-3 (DHA) [1]: 78.49%
- CFA for C22:6 n-3 (DHA), Difference (rhBSSL − Placebo) [1]: 4.72* %
- CFA for C24:1 [1]: 36.85%
- CFA for C24:1, Difference (rhBSSL − Placebo) [1]: 7.68%
- Total Amount of Fat in Stool, Maximum [2]: 13.3 g
- Total Amount of Fat in Stool, Mean (SD) [2]: 6.16 g and 6.16 (3.550) g
- Total Amount of Fat in Stool, Median [2]: 4.99 g
- Total Amount of Fat in Stool, Minimum [2]: 0.9 g
- Coefficient of absorption of the sum of all LCPUFAs, LS mean [3]: 70.2%
- Coefficient of absorption of the sum of all LCPUFAs, LS mean difference (rhBSSL-Placebo) [3]: 8.02%
- Coefficient of absorption of the sum of all polyunsaturated fatty acids, LS mean [3]: 70.7%
- Coefficient of absorption of the sum of all polyunsaturated fatty acids, LS mean difference (rhBSSL-Placebo) [3]: 6.92%
- Coefficient of absorption of the sum of all saturated fatty acids, LS mean [3]: 66.1%
- Coefficient of absorption of the sum of all saturated fatty acids, LS mean difference (rhBSSL-Placebo) [3]: 4.36%
- Coefficient of absorption of the sum of all unsaturated fatty acids, LS mean [3]: 70.6%
- Coefficient of absorption of the sum of all unsaturated fatty acids, LS mean difference (rhBSSL-Placebo) [3]: 5.10%
- CFA for C12:0 [4]: 88.86%
- CFA for C12:0, Difference (rhBSSL − Placebo) [4]: 2.42%
- CFA for C14:0 (myristic acid) [4]: 76.15%
- CFA for C14:0 (myristic acid), Difference (rhBSSL − Placebo) [4]: 4.81%
- CFA for C16:0 [4]: 55.49%
- CFA for C16:0, Difference (rhBSSL − Placebo) [4]: 2.61%
- CFA for C18:0 [4]: 44.28%
- CFA for C18:0, Difference (rhBSSL − Placebo) [4]: 1.51%
- CFA for C18:1 [4]: 73.66%
- CFA for C18:1, Difference (rhBSSL − Placebo) [4]: 3.65%
- CFA for C18:2 n-6 (linoleic acid) [4]: 77.49%
- CFA for C18:2 n-6 (linoleic acid), Difference (rhBSSL − Placebo) [4]: 5.79%
- CFA for C18:3 n-3 (alpha-linolenic acid) [4]: 76.31%
- CFA for C18:3 n-3 (alpha-linolenic acid), Difference (rhBSSL − Placebo) [4]: 3.66%
- Total Amount of Fat in Stool, Maximum [5]: 15.0 g
- Total Amount of Fat in Stool, Mean (SD) [5]: 7.50 g and 7.50 (3.635) g
- Total Amount of Fat in Stool, Median [5]: 7.05 g
- Total Amount of Fat in Stool, Minimum [5]: 0.9 g
- Total Amount of Fat in Stool, Mean (SD) (combined data, PP, second column also headed rhBSSL (N = 46), placebo according to b324): 8.36 (4.018) g
- Coefficient of Absorption of AA (C20:4 n-6), LS Mean (combined studies 020+021, FAS): 77.60%
- Coefficient of Absorption of AA (C20:4 n-6), LS Mean Difference (rhBSSL − Placebo) (combined studies 020+021, FAS): 8.70%
- Coefficient of Absorption of AA (C20:4 n-6), Maximum (combined studies 020+021, FAS): 100.0%
- Coefficient of Absorption of AA (C20:4 n-6), Mean (SD) (combined studies 020+021, FAS): 77.88 (17.628) %
- Coefficient of Absorption of AA (C20:4 n-6), Median (combined studies 020+021, FAS): 81.28%
- Coefficient of Absorption of AA (C20:4 n-6), Minimum (combined studies 020+021, FAS): 26.6%
- Coefficient of Absorption of DHA (C22:6 n-3), LS Mean (combined studies 020+021, FAS): 77.91%
- Coefficient of Absorption of DHA (C22:6 n-3), LS Mean Difference (rhBSSL − Placebo) (combined studies 020+021, FAS): 6.24%
- Coefficient of Absorption of DHA (C22:6 n-3), Maximum (combined studies 020+021, FAS): 100.0%
- Coefficient of Absorption of DHA (C22:6 n-3), Mean (SD) (combined studies 020+021, FAS): 77.97 (16.251) %
- Coefficient of Absorption of DHA (C22:6 n-3), Median (combined studies 020+021, FAS): 81.22%
- Coefficient of Absorption of DHA (C22:6 n-3), Minimum (combined studies 020+021, FAS): 26.8%
- CFA (overall), LS Mean Difference (rhBSSL − Placebo) (combined studies 020+021, FAS): 3.70%
- CFA (overall), Maximum (combined studies 020+021, FAS): 93.2%
- CFA (overall), Mean (SD) (combined studies 020+021, FAS): 67.80 (16.663) %
- CFA (overall), Median (combined studies 020+021, FAS): 71.09%
- CFA (overall), Minimum (combined studies 020+021, FAS): 11.7%
- Coefficient of Absorption of AA (C20:4 n-6), LS Mean (combined studies 020+021, PP): 77.36%
- Coefficient of Absorption of AA (C20:4 n-6), LS Mean Difference (rhBSSL − Placebo) (combined studies 020+021, PP): 8.63%
- Coefficient of Absorption of AA (C20:4 n-6), Maximum (combined studies 020+021, PP): 100.0%
- Coefficient of Absorption of AA (C20:4 n-6), Mean (SD) (combined studies 020+021, PP): 78.01 (16.881) %
- Coefficient of Absorption of AA (C20:4 n-6), Median (combined studies 020+021, PP): 81.01%
- Coefficient of Absorption of AA (C20:4 n-6), Minimum (combined studies 020+021, PP): 26.6%
- Coefficient of Absorption of DHA (C22:6 n-3), LS Mean (combined studies 020+021, PP): 79.83%
- Coefficient of Absorption of DHA (C22:6 n-3), LS Mean Difference (rhBSSL − Placebo) (combined studies 020+021, PP): 5.80%
- Coefficient of Absorption of DHA (C22:6 n-3), Maximum (combined studies 020+021, PP): 100.0%
- Coefficient of Absorption of DHA (C22:6 n-3), Mean (SD) (combined studies 020+021, PP): 79.76 (14.075) %
- Coefficient of Absorption of DHA (C22:6 n-3), Median (combined studies 020+021, PP): 82.90%
- Coefficient of Absorption of DHA (C22:6 n-3), Minimum (combined studies 020+021, PP): 42.2%
- CFA (overall), LS Mean Difference (rhBSSL − Placebo) (combined studies 020+021, PP): 3.56%
- CFA (overall), Maximum (combined studies 020+021, PP): 93.2%
- CFA (overall), Mean (SD) (combined studies 020+021, PP): 69.08% and 69.08 (14.683) %
- CFA (overall), Median (combined studies 020+021, PP): 71.83%
- CFA (overall), Minimum (combined studies 020+021, PP): 31.2%
- Relative increase of overall CFA compared to the LS mean for placebo (combined studies, PP): 5.4%
- Relative increase of overall CFA compared to the LS mean for placebo (formula-fed infants (BVT.BSSL-020), PP): 3.1%
